Consider 15 molecules from patent publication US20030211992A1 (published 2003).

The target of experiment [1] is T1, recombinant human IGFBP-3 (human, UniProt P17936 28-291).
T1 construct: biotinylated and held on a streptavidin chip in the ALS experiment
Nature of the experiment: competitive phage ELISA.

Experiment [2] concerns the target T2, human IGFBP-1 (human, UniProt P08833 26-259).
T2 construct: biotinylated in the ELISA formats; amine-coupled to the chip in peptide kinetics
T2 sequence (looked up): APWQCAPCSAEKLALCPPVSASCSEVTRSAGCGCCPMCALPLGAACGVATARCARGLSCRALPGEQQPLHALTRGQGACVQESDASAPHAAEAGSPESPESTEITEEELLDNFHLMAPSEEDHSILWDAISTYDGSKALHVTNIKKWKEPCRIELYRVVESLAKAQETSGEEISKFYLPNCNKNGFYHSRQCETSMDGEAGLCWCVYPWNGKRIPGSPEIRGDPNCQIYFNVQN
The experiment can be described thus: competitive phage ELISA.

The target of experiment [3] is T1, recombinant human IGFBP-3. The experiment can be described thus: competitive phage ELISA. This is another data set of the same source.
The target in experiment [4] is T2, human IGFBP-1. The experiment can be described thus: competitive phage ELISA. The source holds these as a separate data set.
The target of experiment [5] is T1, recombinant human IGFBP-3. Nature of the experiment: competitive phage ELISA; the reference itself.
Experiment [6] addresses T2, human IGFBP-1. The experiment can be described thus: competitive phage ELISA; the reference itself.
For experiment [7], the target named is T2, human IGFBP-1. The experiment can be described thus: stated with the explant experiment.
For experiment [8], the target named is T1, recombinant human IGFBP-3. Nature of the experiment: phage ELISA on IGFBP-3 plate, competitor IGF-1. The procedure:
The plates were then washed ten times, as above, and a solution of rabbit anti-phage antibody mixed with a goat-anti-rabbit conjugate of horseradish peroxidase was added. After an incubation of 1 hour at room temperature, the plates were developed with a chromogenic substrate, o-phenylenediamine (Sigma). The reaction was stopped with addition of ½ volume of 2.5 M H₂SO₄. Optical density at 490 nm was measured on a spectrophotometric plate reader.
In each case, the phagemid clone was grown from a single colony overnight at 37° C. in a culture volume of 5 ml. The phage particles were precipitated and resuspended in 0.5 ml of PBS buffer.

Experiment [9] concerns the target IGFBP-3/E3A/F49A IGF-1 binary complex (human) (UniProt P17936). The experiment can be described thus: BIAcore, ALS dissociation from the IGFBP-3/IGF-1 complex.
The target of experiment [10] is IGFBP-3/F49A IGF-1 binary complex (human) (UniProt P17936). The experiment is described as above.
The target of experiment [11] is T2, human IGFBP-1. Nature of the experiment: BIAcore inhibition of IGFBP-1 binding to IGF-1.

Where two headings read alike, the source gives them in different places. Positions of bridges follow the written chain, without caps; N, C: chain ends. No end group written: not given here.

T1 sequence (P17936 28-291 limits assumed): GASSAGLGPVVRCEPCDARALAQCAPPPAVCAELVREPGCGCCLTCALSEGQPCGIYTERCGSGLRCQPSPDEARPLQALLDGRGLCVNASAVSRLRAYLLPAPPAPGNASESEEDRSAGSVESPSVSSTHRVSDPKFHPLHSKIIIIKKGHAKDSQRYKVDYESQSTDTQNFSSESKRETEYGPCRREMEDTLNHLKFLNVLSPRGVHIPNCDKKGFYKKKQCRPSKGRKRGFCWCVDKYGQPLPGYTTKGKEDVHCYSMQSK
IGFBP-3/E3A/F49A IGF-1 binary complex (human), sequence (P17936 28-291, chain 1 of 2): as the sequence (P17936 28-291 limits assumed) above
IGFBP-3/E3A/F49A IGF-1 binary complex (human), sequence (chain, as listed by the source F49A F49A, chain 2 of 2): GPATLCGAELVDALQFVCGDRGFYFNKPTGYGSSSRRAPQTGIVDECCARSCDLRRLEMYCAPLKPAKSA
IGFBP-3/F49A IGF-1 binary complex (human), sequence (P17936 28-291, chain 1 of 2): as the sequence (P17936 28-291 limits assumed) above
IGFBP-3/F49A IGF-1 binary complex (human), sequence (chain, as listed by the source F49A F49A, chain 2 of 2): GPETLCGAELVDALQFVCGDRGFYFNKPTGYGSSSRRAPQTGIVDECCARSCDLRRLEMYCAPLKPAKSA

As for “IGF-1 G1S-A70V on phage (from UniProt P69168 267-424) (ligand)”, the half-inhibitory concentration (IC50) in experiment [1] came to 0.5 nM; in the experiment with human IGFBP-1 [2], 8.5 nM; in experiment [3] it was 0.75 nM; with human IGFBP-1 [4], 8.2 nM. In addition, the relative IC50 (mut/G1S-A70V) (in experiment [5]; in the experiment with human IGFBP-1 [6]) was 1 throughout.
For the molecule “R50A IGF-1 (G1S-A70V background) on phage (from UniProt P69168 267-424) (ligand)”, the IC50 was found to be 0.64 nM in experiment [3] and 16.2 nM with human IGFBP-1 [4]. Also, the relative IC50 (mut/G1S-A70V) worked out at 0.9 in experiment [3] and 2 with human IGFBP-1 [4].
With “E58A IGF-1 (G1S-A70V background) on phage (from UniProt P69168 267-424) (ligand)”, in experiment [3], the IC50 came to 1.03 nM and the relative IC50 (mut/G1S-A70V) was 1.4. Further, in the experiment with human IGFBP-1 [4], the concentration for half-maximal inhibition (IC50) worked out at 11.9 nM and the relative IC50 (mut/G1S-A70V) was found to be 1.5.
Turning to “S33A IGF-1 (G1S-A70V background) on phage (from UniProt P69168 267-424) (ligand)”, in [3], the 50% inhibitory concentration (IC50) was 1.01 nM and the relative IC50 (mut/G1S-A70V) stood at 1.3. Further, in the experiment with human IGFBP-1 [4], the IC50 stood at 9.1 nM and the relative IC50 (mut/G1S-A70V) worked out at 1.1.
In the case of “S34A IGF-1 (G1S-A70V background) on phage (from UniProt P69168 267-424) (ligand)”, in [3], the IC50 is 1.65 nM and the relative IC50 (mut/G1S-A70V) was 2.2. In the experiment with human IGFBP-1 [4], this molecule yielded an IC50 of 9.5 nM and a relative IC50 (mut/G1S-A70V) of 1.2.
Turning to “S69A IGF-1 (G1S-A70V background) on phage (from UniProt P69168 267-424) (ligand)”, the IC50 is 0.71 nM in experiment [3] and 12.8 nM with human IGFBP-1 [4]. Besides, the relative IC50 (mut/G1S-A70V) in experiment [3] was 1.2; with human IGFBP-1 [4] it was 1.6.
Consider “G32A IGF-1 (G1S-A70V background) on phage (from UniProt P69168 267-424) (ligand)”, for which the half-maximal inhibitory concentration (IC50) in experiment [3] is 0.76 nM; with human IGFBP-1 [4], 10.9 nM. Also, the relative IC50 (mut/G1S-A70V) in experiment [3] amounted to 1; with human IGFBP-1 [4] it was 1.3.
On to CRAGPLQWLCEKYF-NH2 (disulfide 1-10 (inferred)) [BP1-16], for which the binding result in the experiment with human IGFBP-1 [7] is reported as “binds”.

B1: peptide-phage clone 4D3.9 (g8 display) (peptide)
chain: ETVANCDCYMDLCLCYGSDRGGGSGGGAEGDDPAKAAFNSLQASATEYIGYAWAMVVVIVGATIGIKLFKKFTSKAS
notes: polyvalent on M13 phage
In the case of B1, the “% inhibition of phage binding by 100 nM IGF-1” value (shortened to “% inhibition of phage binding”) in [8] is greater than 40%.

B2: peptide-phage clone 4D3.8 (g8 display) (peptide)
chain: SEEVCWPVAEWYLCNILGPGGGSGGGAEGDDPAKAAFNSLQASATEYIGYAWAMVVVIVGATIGIKLFKKFTSKAS
notes: polyvalent on M13 phage
Turning to B2, in experiment [8], the “% inhibition of phage binding” value was greater than 40%.

B3: peptide-phage clone 4D3.12 (g8 display) (peptide)
chain: AEWAECWIAGDQLLCVGKDNGGGSGGGAEGDDPAKAAFNSLQASATEYIGYAWAMVVVIVGATIGIKLFKKFTSKAS
notes: polyvalent on M13 phage
As to B3, the “% inhibition of phage binding” value in experiment [8] is greater than 40%.

B4: human acid-labile subunit (protein, UniProt P35858 28-605, looked up)
chain: ADPGTPGEAEGPACPAACVCSYDDDADELSVFCSSRNLTRLPDGVPGGTQALWLDGNNLSSVPPAAFQNLSSLGFLNLQGGQLGSLEPQALLGLENLCHLHLERNQLRSLALGTFAHTPALASLGLSNNRLSRLEDGLFEGLGSLWDLNLGWNSLAVLPDAAFRGLGSLRELVLAGNRLAYLQPALFSGLAELRELDLSRNALRAIKANVFVQLPRLQKLYLDRNLIAAVAPGAFLGLKALRWLDLSHNRVAGLLEDTFPGLLGLRVLRLSHNAIASLRPRTFKDLHFLEELQLGHNRIRQLAERSFEGLGQLEVLTLDHNQLQEVKAGAFLGLTNVAVMNLSGNCLRNLPEQVFRGLGKLHSLHLEGSCLGRIRPHTFTGLSGLRRLFLKDNGLVGIEEQSLWGLAELLELDLTSNQLTHLPHRLFQGLGKLEYLLLSRNRLAELPADALGPLQRAFWLDVSHNRLEALPNSLLAPLGRLRYLSLRNNSLRTFTPQPPGLERLWLEGNPWDCGCPLKALRDFALQNPSAVPRFVQAICEGDDCQPPAYTYNNITCASPPEVVGLDLRDLSEAHFAPC
For the molecule B4, the off-rate constant (koff) in experiment [9] worked out at 0.0004 s⁻¹; in experiment [10], 0.00042 s⁻¹.

B5: peptide-phage clone 4C3.2 (g8 display) (peptide)
chain: ELDGWVCIKVGEQNLCYLAEGGGSGGGAEGDDPAKAAFNSLQASATEYIGYAWAMVVVIVGATIGIKLFKKFTSKAS
notes: polyvalent on M13 phage
For B5, in [8], the “% inhibition of phage binding” value is greater than 40%.

B6: peptide-phage clone 4D3.11 (g8 display) (peptide)
chain: VAWEVCWDRHDQGYICTTDSGGGSGGGAEGDDPAKAAFNSLQASATEYIGYAWAMVVVIVGATIGIKLFKKFTSKAS
notes: polyvalent on M13 phage
As to B6, the “% inhibition of phage binding” value in [8] came to 5%.
As for Ac-LEWLAEKYFE (linker 2-10 via 1,5‑diaminopentane) [(i+8)A], the fold potency reduction against BP1-01 in the experiment with human IGFBP-1 [11] is greater than 200.
